Reference: patent US20130203661A1 (AEGERION PHARMACEUTICALS, published 2013)
Residue numbers refer to the chain shown, from its start. Values belong to the binder of their own block, whether it stands above or below them.

How the values were obtained:
[1] = molecular target: T1, chimeric Leptin (Hu)-EPO (Mu) receptor presented by the 32D OBECA cell line (human; murine, UniProt P48357 22-839; P14753 250-507); test: cell-based or functional assay
T1 sequence (looked up): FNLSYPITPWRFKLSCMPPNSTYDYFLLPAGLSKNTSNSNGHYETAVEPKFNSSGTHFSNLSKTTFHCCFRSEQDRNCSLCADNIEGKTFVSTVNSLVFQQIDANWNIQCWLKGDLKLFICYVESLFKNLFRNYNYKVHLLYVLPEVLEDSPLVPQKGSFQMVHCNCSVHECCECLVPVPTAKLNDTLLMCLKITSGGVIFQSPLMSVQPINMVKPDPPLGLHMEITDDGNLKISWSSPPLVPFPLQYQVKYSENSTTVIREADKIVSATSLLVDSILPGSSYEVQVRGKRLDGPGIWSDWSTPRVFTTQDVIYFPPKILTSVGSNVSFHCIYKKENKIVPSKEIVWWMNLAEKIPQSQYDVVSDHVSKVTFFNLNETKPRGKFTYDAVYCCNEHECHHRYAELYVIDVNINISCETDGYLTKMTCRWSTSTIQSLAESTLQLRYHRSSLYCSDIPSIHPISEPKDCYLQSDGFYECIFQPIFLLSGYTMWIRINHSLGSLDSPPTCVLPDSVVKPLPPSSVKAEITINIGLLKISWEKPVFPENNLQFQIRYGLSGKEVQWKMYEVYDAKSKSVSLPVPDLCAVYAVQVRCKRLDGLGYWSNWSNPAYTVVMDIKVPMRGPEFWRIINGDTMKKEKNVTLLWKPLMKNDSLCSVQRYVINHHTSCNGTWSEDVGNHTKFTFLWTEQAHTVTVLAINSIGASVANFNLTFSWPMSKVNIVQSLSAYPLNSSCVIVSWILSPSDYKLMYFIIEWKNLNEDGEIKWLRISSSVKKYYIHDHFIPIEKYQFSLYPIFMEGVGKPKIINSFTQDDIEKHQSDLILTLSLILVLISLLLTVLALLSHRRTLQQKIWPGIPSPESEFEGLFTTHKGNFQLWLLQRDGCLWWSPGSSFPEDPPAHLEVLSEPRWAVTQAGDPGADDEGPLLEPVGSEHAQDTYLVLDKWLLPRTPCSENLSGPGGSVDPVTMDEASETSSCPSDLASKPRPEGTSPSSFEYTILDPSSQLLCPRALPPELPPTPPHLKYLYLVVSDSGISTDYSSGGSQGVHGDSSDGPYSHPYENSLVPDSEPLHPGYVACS

[2] = molecular target: T1, chimeric Leptin (Hu)-EPO (Mu) receptor …; test: Obeca cell binding: displacement of 125I-murine leptin from 32D OBECA cell membranes

B1: Seal leptin with N-terminal methionine, and with amino acids 23-49 replaced with amino acids 25-51 (AB loop) of metreleptin (ligand)
chain: MPIQRVQDDTKTLIKTIITRINDISHTQSVSSKQKVTGLDFIPGLHPILTLSGMDQILATYQQILTSLQSRSVVQIANDLANLRALLRLLASAKSCPVPRARGSDTIKGLGNVLRASVHSTEVVALSRLKAALQDMLRQLDRNPGC
notes: Seal-human chimeric leptin; also called Compound 46
EC50 (Obeca Stat 5 functional assay) [1]: 0.042 nM
IC50 [2]: 0.479 nM

B4: Seal leptin with N-terminal methionine, and with amino acids 93-119 replaced with amino acids 95-121 (loop 3-4) of metreleptin (ligand)
chain: MPIQRVQDDTKTLIKTIITRINDISPPQGVCSRPRVAGLDFIPRVQSVRTLSGMDQILATYQQILTSLQSRSVVQIANDLANLRALLRLLASAKSCHLPWASGLETLDSLGGVLEASGYSTEVVALSRLKAALQDMLRQLDRNPGC
notes: Seal-human chimeric leptin; also called Compound 42; Cmpd 42
EC50 (Obeca Stat 5 functional assay) [1]: 0.043 nM
IC50 [2]: 2.02 nM

B6: Seal leptin with N-terminal methionine, and with amino acids 30 and 93-119 replaced with amino acids 32 and 95-121 (loop 3-4) of metreleptin (ligand)
chain: B4 chain with C31S
notes: Seal-human chimeric leptin; also called Compound 49; Cmpd 49
EC50 (Obeca Stat 5 functional assay) [1]: 0.034 nM
IC50 [2]: 0.105 nM

B9: Seal leptin with N-terminal methionine, and with amino acids 3-22 replaced with amino acids 5-24 (helix 1) of metreleptin (ligand)
chain: MPIQKVQDDTKTLIKTIVTRINDISPPQGVCSRPRVAGLDFIPRVQSVRTLSGMDQILATYQQILTSLQSRSVVQIANDLANLRALLRLLASAKSCPVPRARGSDTIKGLGNVLRASVHSTEVVALSRLKAALQDMLRQLDRNPGC
EC50 (Obeca Stat 5 functional assay) [1]: 0.095 nM

B11: Seal leptin with N-terminal methionine, and with amino acids 71-92 replaced with amino acids 73-94 (helix 3) of metreleptin (ligand)
chain: MPIQRVQDDTKTLIKTIITRINDISPPQGVCSRPRVAGLDFIPRVQSVRTLSGMDQILATYQQILTSLQSRNVIQISNDLENLRDLLHVLAFSKSCPVPRARGSDTIKGLGNVLRASVHSTEVVALSRLKAALQDMLRQLDRNPGC
notes: Seal-human chimeric leptin; also called Compound 41; Cmpd 41
EC50 (Obeca Stat 5 functional assay) [1]: 0.028 nM
IC50 [2]: 0.555 nM

B13: Seal leptin with N-terminal methionine, and with amino acids 30 and 71-92 replaced with amino acids 32 and 73-94 (helix 3) of metreleptin (ligand)
chain: B11 chain with C31S
notes: Seal-human chimeric leptin; also called Compound 48; Cmpd 48
EC50 (Obeca Stat 5 functional assay) [1]: 0.039 nM
IC50 [2]: 0.036 nM

B14: Seal leptin with N-terminal methionine, and with amino acids 3-22 replaced with amino acids 5-24 (helix 1) of metreleptin, and amino acids 72-93 replaced with … (ligand)
chain: B11 chain with R5K, I18V
notes: Seal-human chimeric leptin; also called Compound 45
EC50 (Obeca Stat 5 functional assay) [1]: 0.029 nM
IC50 [2]: 0.527 nM

B15: Seal leptin (ligand)
chain: PIQRVQDDTKTLIKTIITRINDISPPQGVCSRPRVAGLDFIPRVQSVRTLSGMDQILATYQQILTSLQSRSVVQIANDLANLRALLRLLASAKSCPVPRARGSDTIKGLGNVLRASVHSTEVVALSRLKAALQDMLRQLDRNPGC
notes: also called Compound 38; Cmpd 38
EC50 (Obeca Stat 5 functional assay) [1]: 0.019 nM
IC50 [2]: 2 nM

Results, then the binder that gave them:

EC50 (Obeca Stat 5 functional assay) [1]: 0.588 nM
IC50 [2]: 2.41 nM
B2: Seal leptin with N-terminal methionine, with amino acids 23-49 replaced with amino acids 25-51 (AB loop) of metreleptin, and with amino acids 120-141 replaced … (ligand)
chain: B1 chain with K130Q, A131G, A132S, R138W, R142L
notes: Seal-human chimeric leptin; also called Compound 40

EC50 (Obeca Stat 5 functional assay) [1]: 0.038 nM
IC50 [2]: 0.119 nM
B3: Seal leptin with N-terminal methionine, and with amino acids 71-92 replaced with amino acids 73-94 (helix 3) of metreleptin, and with amino acids 23-49 … (ligand)
chain: B1 chain with S72N, V74I, A77S, A81E, A85D, R88H, L89V, S92F, A93S
notes: Seal-human chimeric leptin; also called Compound 51

EC50 (Obeca Stat 5 functional assay) [1]: 0.022 nM
IC50 [2]: 0.214 nM
B5: Seal leptin with N-terminal methionine, with amino acids 71-92 replaced with amino acids 73-94 (helix 3) of metreleptin, and with amino acids 93-119 replaced … (ligand)
chain: B4 chain with S72N, V74I, A77S, A81E, A85D, R88H, L89V, S92F, A93S
notes: Seal-human chimeric leptin; also called Compound 50

EC50 (Obeca Stat 5 functional assay) [1]: 0.0625 nM
IC50 [2]: 0.788 nM
B7: Seal leptin with N-terminal methionine, with amino acids 23-49 replaced with amino acids 25-51 (AB loop) of metreleptin, and with amino acids 93-119 replaced … (ligand)
chain: MPIQRVQDDTKTLIKTIITRINDISHTQSVSSKQKVTGLDFIPGLHPILTLSGMDQILATYQQILTSLQSRSVVQIANDLANLRALLRLLASAKSCHLPWASGLETLDSLGGVLEASGYSTEVVALSRLKAALQDMLRQLDRNPGC
notes: Seal-human chimeric leptin; also called Compound 47

EC50 (Obeca Stat 5 functional assay) [1]: 0.044 nM
B8: Seal leptin with N-terminal methionine, with amino acids 23-49 replaced with amino acids 25-51 (AB loop) of metreleptin, with amino acids 93-119 replaced with … (ligand)
chain: B7 chain with S72N, V74I, A77S, A81E, A85D, R88H, L89V, S92F, A93S

EC50 (Obeca Stat 5 functional assay) [1]: 0.032 nM
IC50 [2]: 3.54 nM
B10: Seal leptin with N-terminal methionine, and with amino acids 120-141 replaced with amino acids 122-143 (helix 4) of metreleptin (ligand)
chain: B9 chain with K5R, V18I, K130Q, A131G, A132S, R138W, R142L
notes: Seal-human chimeric leptin; also called Compound 44

EC50 (Obeca Stat 5 functional assay) [1]: 0.054 nM
IC50 [2]: 3.08 nM
B12: Seal leptin with N-terminal methionine, and with amino acids 50-65 replaced with amino acids 52-67 (helix 2) of metreleptin (ligand)
chain: B9 chain with K5R, V18I, G53K, I57T, T60V
notes: Seal-human chimeric leptin; also called Compound 43
